Test system: HCT116
Experiment: MTT cytotoxicity test on HCT116
Format: cell-based, human
Settings: continuous incubation over 72 h

B1: Ex. 3^a: fusion protein SEQ. No. 3: (TRAIL121-281)-MMP-UROKIN-(SEQ. No. 35, synthetic 15-amino acids lytic peptide) (protein)
chain: RVAAHITGTRGRSNTLSSPNSKNEKALGRKINSWESSRSGHSFLSNLHLRNGELVIHEKGFYYIYSQTYFRFQEEIKENTKNDKQMVQYIYKYTSYPDPILLMKSARNSCWSKDAEYGLYSIYQGGIFELKENDRIFVSVTNEHLIDMDHEASFFGAFLVGPLGLAGRVVRKLLLRLLKKLLRLLK
modifications: synthesized, fusion protein comprising: a fragment of TRAIL protein, synthetic 15-amino acids lytic peptid and cleavage site sequences recognized by urokinase and metalloprotease.
IC50: 1.8785 µg/mL

From patent publication US20140377216A1, “ANTICANCER FUSION PROTEIN” (ADAMED SP. Z.O.O., priority 2011, published 2014)
